Experimental data reported in article doi:10.1101/619841.

How the values were obtained:
[1] = target: cross-linked and fluorescent HIV-1 CA tubes co-assembled from CA A14C/E45C and labelled CA K158C (HIV-1); experiment: TIRF microscopy biosensor, equilibrium binding
[2] = target: cross-linked and fluorescent HIV-1 CA tubes co-assembled from CA A14C/E45C and labelled CA K158C (HIV-1); experiment: TIRF microscopy biosensor

| Substance | Kd [1] [µM] | stoichiometry N [1] [CypA per CA] | molar binding ratio (370 nM analyte) (molecules per CA) [2] |
| --- | --- | --- | --- |
| cyclophilin A labelled at Cys51 with Alexa Fluor 647 (from UniProt P62937 1-165) (natural protein) | 8 | 0.5 | – |
| full length CPSF6 fused at its N-terminus to GFP (natural protein) | – | – | 0.2 |
